In US12624118B2, “Trispecific binding molecules against BCMA and uses thereof” (Novartis AG, priority 2019, dated 2026):

T1: recombinant human CD2 (Homo sapiens, UniProt P06729)
T1 construct: transiently produced and purified from HEK293 cells along with the CD2 extracellular domain; made in house; host or cells: HEK293 / HEK293F cells (transient expression)
T1 sequence (P06729 with tags, fused parts or gaps): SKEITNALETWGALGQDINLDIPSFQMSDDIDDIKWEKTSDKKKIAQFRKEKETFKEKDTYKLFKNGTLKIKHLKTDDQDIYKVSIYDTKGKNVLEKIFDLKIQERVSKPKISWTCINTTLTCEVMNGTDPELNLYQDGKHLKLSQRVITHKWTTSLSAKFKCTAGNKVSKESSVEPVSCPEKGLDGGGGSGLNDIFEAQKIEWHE


What was measured:
[1] = Thermal stability by differential scanning fluorimetry (DSF); type: physicochemical; conditions: Sypro Orange; 25° C. to 95° C. at 0.5° C./minute
Experimental: Disulfide stabilized variants were assessed for improved thermal stability using both differential scanning calorimetry (DSC) and differential scanning fluorimetry (DSF) using standard techniques. For DSF, 1-3 ug of each construct was add to 1× Sypro Orange (Thermo-Fisher) in 25 ul total volume in 96-well PCR plate. Using a Bio-Rad CFX96 RT-PCR system equipped with C1000 Thermal Cycler, the temperature was increased from 25° C. to 95° C. at 0.5° C./minute and the fluorescence monitored. The manufacturer-supplied software was used to determine Tm.

recombinant human CD2 = target: T1, recombinant human CD2; test: Isothermal calorimetry (ITC) binding affinity of CD58 variants; conditions: recombinant human CD2 (100 μM) titrated into 10 μM CD58 variant in HBS, apparent KD
Experimental: To ensure the binding affinity remained uncompromised by the additional of the stabilizing disulfide variance, isothermal calorimetry (ITC) was performed on the resulting recombinant CD58 proteins to determine their apparent KD and binding stoicheometry (n) to recombinant human CD2.
Briefly, recombinant human CD2 and recombinant human CD58 variants were dialyzed into HEPES-buffered saline (HBS). CD2 was diluted to final concentration of 100 μM, CD58 variants were diluted to 10 μM. CD2 was titrated into 10 μM of CD58 variants via multiple injections and ΔH (kcal/mole) determined using a MicroCal VP-ITC isothermal titration calorimeter (Malvern). Titrations of CD2 into HBS were used as a reference and KD and n determined from the resulting data.

[2] = Thermal stability by differential scanning calorimetry (DSC); type: physicochemical; conditions: HBS, 0.5 mg/mL; 25° C. to 100° C. at 1° C./minute
Experimental: For DSC, all samples were dialyzed into HEPES-buffered saline (HBS) and diluted to final concentration of 0.5 mg/mL. Tm and Tonset were determined using a MicroCal VP-Capillary DSC system (Malvern) by increasing temperature from 25° C. to 100° C. at 1° C./minute with a filtering period of 2 seconds and a mid-gain setting.

[3] = system: KMS11-Luc multiple myeloma orthotopic tumor; test: KMS11-Luc multiple myeloma orthotopic tumor model; type: in vivo; conditions: tested as anti-BCMA x anti-CD3 bispecific antibodies having VH and VL sequences of the binder; NSG mice
Source text: (§1) Anti-BCMA x anti-CD3 bispecific antibodies having VH and VL sequences of AB1, AB2, and AB3 were produced.

[4] = system: BCMA+ multiple myeloma cell lines; test: In vitro RTCC assays of anti-BCMA x anti-CD3 bispecific antibodies; type: cell-based; conditions: tested as anti-BCMA x anti-CD3 bispecific antibodies having VH and VL sequences of the binder
Source text: as §1

Molecule	Tm (° C.) By Differential Scanning Fluorimetry (DSF) [1]	Kd (recombinant human CD2)	Tm (° C.) By Differential Scanning Calorimetry (DSC) [2]	Tmonset (° C.) By Differential Scanning Calorimetry (DSC) [2]	anti-tumor activity [3]	activity in in vitro RTCC assays [4]
CD58 Full ECD: recombinant human CD58 full extracellular domain with C-terminal 8×his tag (protein, C-terminal 8xHis tag, recombinant human CD58 full extracellular domain with C-terminal 8×his tag) SQQIYGVVYGNVTFHVPSNVPLKEVLWKKQKDKVAELENSEFRAFSSFKNRVYLDTVSGSLTIYNLTSSDEDEYEMESPNITDTMKFFLYVLESLPSPTLTCALTNGSIEVQCMIPEHYNSHRGLIMYSWDCPMEQCKRNSTSIYFKMENDLPQKIQCTLSNPLFNTTSSIILTTCIPSSGHSRHRGGGGSHHHHHHHH	59.5 °C	570 nM	65.0 °C	48.8 °C		
AB3: anti-BCMA binder, AB3 Family, derived from parental PI-61 (antibody, V domains shown) VH: QVQLVESGGGVVQPGRSLRLSCAASGFTVSSYGMHWVRQAPGKGLEWVAVISYTGSNKYYADSVKGRFTISRDNSKNTLYLQMNSLRAEDTAVYYCGGSGYALHDDYYGLDVWGQGTLVTVSS VL: QSALTQPASVSGSPGQSITISCTGTSSDVGGYNYVSWYQQHPGKAPKLMIYDVSNRLRGVSNRFSGSKSGNTASLTISGLQAEDEADYYCSSYTSSSALYVFGSGTKVTVL					anti-tumor activity	active
IgV V54C_G88C: CD58 domain 1 with V54 and G88 replaced by cysteines to form a disulfide bridge (protein) SQQIYGVVYGNVTFHVPSNVPLKECLWKKQKDKVAELENSEFRAFSSFKNRVYLDTVSCSLTIYNLTSSDEDEYEMESPNITDTMKFFLYVLESGGGGSHHHHHHHH	76.5 °C		80.9 °C	66.7 °C		
CD58_IgV: IgV domain (domain 1) of human CD58, without stabilizing disulfide (protein) SQQIYGVVYGNVTFHVPSNVPLKEVLWKKQKDKVAELENSEFRAFSSFKNRVYLDTVSGSLTIYNLTSSDEDEYEMESPNITDTMKFFLYVLESGGGGSHHHHHHHH	48.5 °C		60.9 °C	46.3 °C		
IgV V45C_M105C: CD58 domain 1 with V45 and M105 replaced by cysteines to form a disulfide bridge (protein) SQQIYGVVYGNVTFHCPSNVPLKEVLWKKQKDKVAELENSEFRAFSSFKNRVYLDTVSGSLTIYNLTSSDEDEYECESPNITDTMKFFLYVLESGGGGSHHHHHHHH	48.5 °C		66.8 °C	43.9 °C		
IgV V45C_M114C: CD58 domain 1 with V45 and M114 replaced by cysteines to form a disulfide bridge (protein) SQQIYGVVYGNVTFHCPSNVPLKEVLWKKQKDKVAELENSEFRAFSSFKNRVYLDTVSGSLTIYNLTSSDEDEYEMESPNITDTCKFFLYVLESGGGGSHHHHHHHH	63.5 °C		72.5 °C	49.6 °C		
